Experimental data published in PMC5452015, “Sen1 has unique structural features grafted on the architecture of the Upf1‐like helicase family” (The EMBO Journal, 2017).
Substitutions are numbered along the chain they refer to.

Tests used:
[1] = biological target: T1, Sen1Hel (crystal construct, loop 1,471-1,538 removed) (Saccharomyces cerevisiae, UniProt Q00416, DEL1471-1538); assay: X-ray crystal structure, […] A; format: binding; conditions: 10-fold molar excess ADP, HEPES pH 7.5, 4 C; nucleotide site on RecA1, no RNA
T1 construct: gene SEN1; helicase core 1095-1904 with disordered loop 1471-1538 replaced by a (Gly-Ser)2 linker; C-terminal CPD-His8 tag cut off with 3C; expressed in E. coli; model covers 1096-1875
T1 sequence (Q00416 with tags, fused parts or gaps DEL1471-1538): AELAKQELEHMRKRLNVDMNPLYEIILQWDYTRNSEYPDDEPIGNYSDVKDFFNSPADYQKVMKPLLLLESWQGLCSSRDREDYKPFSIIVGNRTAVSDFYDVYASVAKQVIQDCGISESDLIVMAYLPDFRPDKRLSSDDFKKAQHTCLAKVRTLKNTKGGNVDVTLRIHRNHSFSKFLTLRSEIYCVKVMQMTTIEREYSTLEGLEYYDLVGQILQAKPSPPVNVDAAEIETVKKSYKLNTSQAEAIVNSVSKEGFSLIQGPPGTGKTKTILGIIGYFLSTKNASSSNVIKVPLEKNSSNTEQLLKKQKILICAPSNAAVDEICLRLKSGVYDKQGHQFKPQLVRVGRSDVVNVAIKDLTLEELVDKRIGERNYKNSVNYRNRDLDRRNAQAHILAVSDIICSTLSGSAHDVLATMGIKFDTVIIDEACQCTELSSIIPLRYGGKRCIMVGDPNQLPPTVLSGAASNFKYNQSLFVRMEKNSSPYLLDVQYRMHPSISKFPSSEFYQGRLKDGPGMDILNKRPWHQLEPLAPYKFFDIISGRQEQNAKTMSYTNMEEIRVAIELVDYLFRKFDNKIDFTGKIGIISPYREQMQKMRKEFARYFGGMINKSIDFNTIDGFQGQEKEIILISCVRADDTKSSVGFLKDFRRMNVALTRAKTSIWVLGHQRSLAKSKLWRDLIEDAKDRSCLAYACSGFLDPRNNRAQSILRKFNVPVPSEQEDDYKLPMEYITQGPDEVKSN

[2] = biological target: T2, Sen1Hel (Saccharomyces cerevisiae, UniProt Q00416); assay: ATP hydrolysis, alpha-32P-ATP, thin-layer chromatography; format: biochemical; conditions: polyU 50 ng/ul, 250 uM ATP, 1 mM MgCl2, pH 7.5, 28 C
T2 construct: gene SEN1; helicase core 1095-1904, ~90 kDa; C-terminal CPD-His8 tag cut off with 3C protease; expressed in E. coli BL21 (DE3) STAR pRARE
T2 sequence (Q00416 1095-1904): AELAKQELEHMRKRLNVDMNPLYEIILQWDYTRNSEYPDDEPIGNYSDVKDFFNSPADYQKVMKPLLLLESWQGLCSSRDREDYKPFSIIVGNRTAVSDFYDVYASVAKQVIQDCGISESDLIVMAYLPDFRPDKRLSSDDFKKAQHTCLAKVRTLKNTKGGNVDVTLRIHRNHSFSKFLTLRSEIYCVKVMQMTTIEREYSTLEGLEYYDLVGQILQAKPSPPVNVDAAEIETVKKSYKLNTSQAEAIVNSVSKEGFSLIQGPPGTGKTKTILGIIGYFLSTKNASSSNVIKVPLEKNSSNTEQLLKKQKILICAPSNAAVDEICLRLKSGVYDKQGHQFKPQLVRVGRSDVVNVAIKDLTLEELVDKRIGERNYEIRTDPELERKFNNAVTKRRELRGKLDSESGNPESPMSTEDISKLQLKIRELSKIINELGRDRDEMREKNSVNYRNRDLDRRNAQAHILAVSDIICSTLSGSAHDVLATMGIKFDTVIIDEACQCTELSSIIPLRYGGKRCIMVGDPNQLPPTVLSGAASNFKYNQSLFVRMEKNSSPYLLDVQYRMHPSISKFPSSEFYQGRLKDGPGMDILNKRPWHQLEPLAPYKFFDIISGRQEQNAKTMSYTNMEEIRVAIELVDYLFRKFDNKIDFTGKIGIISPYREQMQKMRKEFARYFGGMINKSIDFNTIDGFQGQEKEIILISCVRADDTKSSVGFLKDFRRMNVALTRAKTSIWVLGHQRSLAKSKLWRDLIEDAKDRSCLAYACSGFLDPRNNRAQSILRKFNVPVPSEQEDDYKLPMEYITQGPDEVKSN

[3] = biological target: T3, Sen1Hel P1622L (Saccharomyces cerevisiae, UniProt Q00416 1095-1904, P1622L); assay: fluorescence anisotropy; 2 mM Mg2+; FA: 20 mM Hepes pH 7.5, 300 mM NaCl, 2 mM MgCl2, 1 mM DTT, 20 C, 10 nM RNA; EMSA: 2 nM RNA, 10-160 nM protein (buffer not in the material); conditions: protein: recombinant; tags: C-terminal CPD-His8 removed by 3C; label: 5' fluorescein
T3 sequence: T2 sequence (Q00416 1095-1904) with P528L

[4] = biological target: T4, Sen1Hel (wild type) (Saccharomyces cerevisiae, UniProt Q00416 1095-1904); assay: as above; conditions: protein: recombinant; tags: C-terminal CPD-His8 removed by 3C; label: 5' fluorescein
T4 sequence: T2 sequence (Q00416 1095-1904)

[5] = biological target: T5, Sen1Hel N1413S (Saccharomyces cerevisiae, UniProt Q00416 1095-1904, N1413S); assay: fluorescence anisotropy; 2 mM Mg2+; text says impaired; FA: 20 mM Hepes pH 7.5, 300 mM NaCl, 2 mM MgCl2, 1 mM DTT, 20 C, 10 nM RNA; EMSA: 2 nM RNA, 10-160 nM protein (buffer not in the material); conditions: protein: recombinant; tags: C-terminal CPD-His8 removed by 3C; label: 5' fluorescein
T5 sequence: T2 sequence (Q00416 1095-1904) with N319S

[6] = biological target: T6, Sen1Hel deltaLP (Saccharomyces cerevisiae, UniProt Q00416 1095-1904, del1461-1554); assay: EMSA; FA: 20 mM Hepes pH 7.5, 300 mM NaCl, 2 mM MgCl2, 1 mM DTT, 20 C, 10 nM RNA; EMSA: 2 nM RNA, 10-160 nM protein (buffer not in the material); conditions: protein: recombinant; tags: C-terminal CPD-His8 removed by 3C; label: 5' fluorescent label
T6 sequence: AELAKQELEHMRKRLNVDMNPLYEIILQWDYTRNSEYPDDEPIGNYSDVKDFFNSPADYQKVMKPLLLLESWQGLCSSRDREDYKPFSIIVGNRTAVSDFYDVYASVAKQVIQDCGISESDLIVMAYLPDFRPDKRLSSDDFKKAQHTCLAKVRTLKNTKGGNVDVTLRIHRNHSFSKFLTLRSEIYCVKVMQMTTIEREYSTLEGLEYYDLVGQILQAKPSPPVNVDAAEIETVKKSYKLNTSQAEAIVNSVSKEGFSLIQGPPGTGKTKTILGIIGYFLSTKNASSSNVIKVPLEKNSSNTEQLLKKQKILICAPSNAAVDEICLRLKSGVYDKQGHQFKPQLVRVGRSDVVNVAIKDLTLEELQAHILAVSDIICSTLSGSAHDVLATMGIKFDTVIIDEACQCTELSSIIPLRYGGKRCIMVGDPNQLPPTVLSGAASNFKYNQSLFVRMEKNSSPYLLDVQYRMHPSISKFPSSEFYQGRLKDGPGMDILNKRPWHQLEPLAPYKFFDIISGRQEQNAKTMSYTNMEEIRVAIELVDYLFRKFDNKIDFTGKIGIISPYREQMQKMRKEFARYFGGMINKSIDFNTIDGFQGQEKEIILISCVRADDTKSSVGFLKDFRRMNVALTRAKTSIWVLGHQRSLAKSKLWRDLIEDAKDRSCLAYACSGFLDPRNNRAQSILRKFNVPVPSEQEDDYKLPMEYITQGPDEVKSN

[7] = biological target: T4, Sen1Hel (wild type); assay: EMSA; high-order complexes at high protein; FA: 20 mM Hepes pH 7.5, 300 mM NaCl, 2 mM MgCl2, 1 mM DTT, 20 C, 10 nM RNA; EMSA: 2 nM RNA, 10-160 nM protein (buffer not in the material); conditions: protein: recombinant; tags: C-terminal CPD-His8 removed by 3C; label: 5' fluorescent label

Nc1ncnc2c1ncn2[C@@H]1O[C@H](COP(=O)(O)OP(=O)(O)O)[C@@H](O)[C@H]1O [ADP]
X-ray crystal structure, 1.8 A [1]: We crystallized Sen1Hel in the presence of ADP and determined the structure

Nc1ncnc2c1ncn2[C@@H]1O[C@H](COP(=O)(O)OP(=O)(O)OP(=O)(O)O)[C@@H](O)[C@H]1O [ATP]
ATP hydrolysis, alpha-32P-ATP, thin-layer chromatography [2]: Sen1Hel showed levels of RNA‐dependent ATPase activity similar to those of full‐length Sen1

UUUCUAUUUAUUUUG (ssRNA) [ARE 15-mer AU-rich RNA]
Kd [3]: ~6.4 µM | Kd [4]: ~0.6 µM | binding result [5]: no binding

UUCAUUUCAGACCAGCACCCACUCACUACAACUCACGACCAGGC (ssRNA) [DL3316 44-mer RNA]
binding result [6]: binds | binding result [7]: binds
